# Reference: patent US10464978B2, “Peptides and combination of peptides for use in immunotherapy against ovarian cancer and other cancers” (immatics biotechnologies GmbH, priority 2015, dated 2019)
# Target: HLA-A*02:01 (Homo sapiens, UniProt P04439, D140Y/D185E/D98H/E176V/E277Q/G131W/G231S/I119V/I121R/I166T/I218V/L300P/L318F/N151K/N90K/P208A/P217A/Q86G/Q94H/R138H/R169H/T345S)
# Assay: MHC binding assay: UV-ligand exchange with beta2m ELISA (peptide exchange yield)
# Settings: binding to HLA-A*02:01
# Excerpt: Candidate peptides for T cell based therapies according to the present invention were further tested for their MHC binding capacity (affinity). The individual peptide-MHC complexes were produced by UV-ligand exchange, where a UV-sensitive peptide is cleaved upon UV-irradiation, and exchanged with the peptide of interest as analyzed. Only peptide candidates that can effectively bind and stabilize the peptide-receptive MHC molecules prevent dissociation of the MHC complexes. To determine the yield of the exchange reaction, an ELISA was performed based on the detection of the light chain ([…]) of stabilized MHC complexes. The assay was performed as generally described in Rodenko et al. (Rodenko et al., 2006).
# 96 well MAXISorp plates (NUNC) were coated over night with 2 ug/ml streptavidin in PBS at room temperature, washed 4× and blocked for 1 h at 37° C. in 2% BSA containing blocking buffer. […] Peptide-MHC monomers of the UV-exchange reaction were diluted 100 fold in blocking buffer. Samples were incubated for 1h at 37° C., washed four times, incubated with 2 ug/ml HRP conjugated anti-β2m for 1h at 37° C., washed again and detected with TMB solution that is stopped with […]. Absorption was measured at 450 nm. Candidate peptides that show a high exchange yield (preferably higher than 50%, most preferred higher than 75%) are generally preferred for a generation and production of antibodies or fragments thereof, and/or T cell receptors or fragments thereof, as they show sufficient avidity to the MHC molecules and prevent dissociation of the MHC complexes.
row,Substance,"Peptide exchange (MHC class I binding score, peptide exchange yield)"
1,1 (SLMEPPAVLLL; listed as Homo sapiens) [compound 1],“+++” (≥50 = +++)
2,2 (SLLEADPFL; listed as Homo sapiens) [compound 2],“+++” (≥50 = +++)
3,4 (GIMEHITKI; listed as Homo sapiens) [compound 4],“++++” (≥75% = ++++)
4,8 (FTLGNVVGMYL; listed as Homo sapiens) [compound 8],“++++” (≥75% = ++++)
5,17 (GLLPGDRLVSV; listed as Homo sapiens) [compound 17],“+++” (≥50 = +++)
6,20 (RMIEYFIDV; listed as Homo sapiens) [compound 20],“+++” (≥50 = +++)
7,21 (VLDELDMEL; listed as Homo sapiens) [compound 21],“++” (≥20% = ++)
8,22 (IMEENPGIFAV; listed as Homo sapiens) [compound 22],“+++” (≥50 = +++)
9,26 (ALLELAEEL; listed as Homo sapiens) [compound 26],“+++” (≥50 = +++)
10,27 (ILADIVISA; listed as Homo sapiens) [compound 27],“+++” (≥50 = +++)
11,30 (LILDWVPYI; listed as Homo sapiens) [compound 30],“+++” (≥50 = +++)
12,33 (VLLSLLEKV; listed as Homo sapiens) [compound 33],“++” (≥20% = ++)
13,35 (KINDTIYEV; listed as Homo sapiens) [compound 35],“+++” (≥50 = +++)
14,36 (YVLEDLEVTV; listed as Homo sapiens) [compound 36],“++” (≥20% = ++)
15,39 (SVAPNLPAV; listed as Homo sapiens) [compound 39],“+++” (≥50 = +++)
16,42 (VLLQKIVSA; listed as Homo sapiens) [compound 42],“+++” (≥50 = +++)
17,43 (VLSSLEINI; listed as Homo sapiens) [compound 43],“++” (≥20% = ++)
18,45 (SLWQDIPDV; listed as Homo sapiens) [compound 45],“+++” (≥50 = +++)
19,46 (ILTEENIHL; listed as Homo sapiens) [compound 46],“+++” (≥50 = +++)
20,49 (YLPAVFEEV; listed as Homo sapiens) [compound 49],“+++” (≥50 = +++)
21,50 (SLSELEALM; listed as Homo sapiens) [compound 50],“+++” (≥50 = +++)
22,51 (LLPDLEFYV; listed as Homo sapiens) [compound 51],“++++” (≥75% = ++++)

# Continued, values first:
row,"Peptide exchange (MHC class I binding score, peptide exchange yield)",Substance
1,“++++” (≥75% = ++++),3 (SLASKLTTL; listed as Homo sapiens) [compound 3]
2,“+++” (≥50 = +++),5 (HLTEVYPEL; listed as Homo sapiens) [compound 5]
3,“+++” (≥50 = +++),6 (VLVSDGVHSV; listed as Homo sapiens) [compound 6]
4,“++++” (≥75% = ++++),7 (SLVGLLLYL; listed as Homo sapiens) [compound 7]
5,“++” (≥20% = ++),9 (GAAKDLPGV; listed as Homo sapiens) [compound 9]
6,“++++” (≥75% = ++++),10 (FLATFPLAAV; listed as Homo sapiens) [compound 10]
7,“+++” (≥50 = +++),11 (KIFEMLEGV; listed as Homo sapiens) [compound 11]
8,“+++” (≥50 = +++),12 (SLWPDPMEV; listed as Homo sapiens) [compound 12]
9,“+++” (≥50 = +++),13 (YLMDESLNL; listed as Homo sapiens) [compound 13]
10,“+++” (≥50 = +++),14 (AAYGGLNEKSFV; listed as Homo sapiens) [compound 14]
11,“++” (≥20% = ++),15 (VLLTFKIFL; listed as Homo sapiens) [compound 15]
12,“+++” (≥50 = +++),16 (VLFQGQASL; listed as Homo sapiens) [compound 16]
13,“++” (≥20% = ++),18 (YLVAKLVEV; listed as Homo sapiens) [compound 18]
14,“++++” (≥75% = ++++),19 (FMVDNEAIYDI; listed as Homo sapiens) [compound 19]
15,“+++” (≥50 = +++),23 (VLLDDIFAQL; listed as Homo sapiens) [compound 23]
16,“++” (≥20% = ++),24 (SLSDGLEEV; listed as Homo sapiens) [compound 24]
17,“+++” (≥50 = +++),25 (FLPDEPYIKV; listed as Homo sapiens) [compound 25]
18,“+++” (≥50 = +++),28 (QLLDETSAITL; listed as Homo sapiens) [compound 28]
19,“+++” (≥50 = +++),29 (KMLGIPISNILMV; listed as Homo sapiens) [compound 29]
20,“++” (≥20% = ++),31 (YLAPELFVNV; listed as Homo sapiens) [compound 31]
21,“++” (≥20% = ++),32 (KLDDLTQDLTV; listed as Homo sapiens) [compound 32]
22,“+++” (≥50 = +++),34 (ILVEADSLWVV; listed as Homo sapiens) [compound 34]
23,“+++” (≥50 = +++),38 (FLLEDDIHVS; listed as Homo sapiens) [compound 38]
24,“+++” (≥50 = +++),40 (TLLVKVFSV; listed as Homo sapiens) [compound 40]
25,“+++” (≥50 = +++),41 (SLMPHIPGL; listed as Homo sapiens) [compound 41]
26,“++” (≥20% = ++),44 (ILDPISSGFLL; listed as Homo sapiens) [compound 44]
27,“++” (≥20% = ++),47 (ILLSVPLLVV; listed as Homo sapiens) [compound 47]
28,“+++” (≥50 = +++),48 (ALAELYEDEV; listed as Homo sapiens) [compound 48]
29,“++++” (≥75% = ++++),52 (FLLAHGLGFLL; listed as Homo sapiens) [compound 52]
